From patent publication US20160038588A1 (Amgen, published 2016)
Where no end group is shown, it is not given here.

T1: recombinant mature myostatin (human, produced in E. coli) (human, UniProt O14793 267-375)
T1 sequence (looked up): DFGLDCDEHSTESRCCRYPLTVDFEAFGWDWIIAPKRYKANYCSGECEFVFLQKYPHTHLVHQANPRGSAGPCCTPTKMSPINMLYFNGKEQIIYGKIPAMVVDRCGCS


Assays:
[1] = molecular target: T1, recombinant mature myostatin (human, …); test: cell-based or functional assay
[2] = molecular target: T1, recombinant mature myostatin (human, …); test: cell-based or functional assay; remark: listed apart in the source

IC50 (read off the curve) [1] [µM]	IC50, C2C12 pMARE-luc assay [2] [nM]	Binder
~20	–	QGHCTRWPWMCPPY (also: cysteine-constrained, bridge type not given here) [TN8-19 peptide]
–	~83	recombinant human activin receptor IIB/Fc chimera (R&D Systems) (Fc fusion, UniProt Q13705 19-134, looked up, not shown: a dimerising Fc or GST) SGRGEAETRECIYYNANWELERTNQSGLERCEGEQDKRLHCYASWRNSSGTIELVKKGCWLDDFNCYDRQECVATEENPQVYFCCCEGNFCNERFTHLPEAGGPEVTYEPPPTAPT
